T1: Methyl-Coenzyme M Reductase (MCR) chain A (Methanothermobacter marburgensis, UniProt P11558 1-550)
T1 sequence (looked up): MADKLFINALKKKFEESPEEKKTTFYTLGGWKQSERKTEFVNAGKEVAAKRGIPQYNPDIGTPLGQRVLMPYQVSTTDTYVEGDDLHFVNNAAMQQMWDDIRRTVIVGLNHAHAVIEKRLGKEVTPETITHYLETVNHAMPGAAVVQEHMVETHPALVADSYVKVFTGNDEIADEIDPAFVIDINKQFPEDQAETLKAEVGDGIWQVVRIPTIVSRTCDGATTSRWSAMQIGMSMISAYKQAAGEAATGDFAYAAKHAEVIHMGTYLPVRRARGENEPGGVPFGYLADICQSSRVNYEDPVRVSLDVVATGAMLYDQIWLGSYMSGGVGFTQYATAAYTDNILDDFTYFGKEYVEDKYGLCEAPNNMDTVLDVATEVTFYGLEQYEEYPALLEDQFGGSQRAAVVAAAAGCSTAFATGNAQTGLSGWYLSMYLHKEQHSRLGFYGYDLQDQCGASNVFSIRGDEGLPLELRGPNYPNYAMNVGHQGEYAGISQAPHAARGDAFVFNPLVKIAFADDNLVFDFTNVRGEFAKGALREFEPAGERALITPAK

B1: Methyl-Coenzyme M Reductase (MCR) chain C (natural protein, Methanothermobacter marburgensis, UniProt P11562 1-249, looked up)
chain: MAQYYPGTTKVAQNRRNFCNPEYELEKLREISDEDVVKILGHRAPGEEYPSVHPPLEEMDEPEDAIREMVEPIDGAKAGDRVRYIQFTDSMYFAPAQPYVRSRAYLCRYRGADAGTLSGRQIIETRERDLEKISKELLETEFFDPARSGVRGKSVHGHSLRLDEDGMMFDMLRRQIYNKDTGRVEMVKNQIGDELDEPVDLGEPLDEETLMEKTTIYRVDGEAYRDDVEAVEIMQRIHVLRSQGGFNLE
B2: Methyl-Coenzyme M Reductase (MCR) chain B (natural protein, Methanothermobacter marburgensis, UniProt P11560 1-443, looked up)
chain: MAKFEDKVDLYDDRGNLVEEQVPLEALSPLRNPAIKSIVQGIKRTVAVNLEGIENALKTAKVGGPACKIMGRELDLDIVGNAESIAAAAKEMIQVTEDDDTNVELLGGGKRALVQVPSARFDVAAEYSAAPLVTATAFVQAIINEFDVSMYDANMVKAAVLGRYPQSVEYMGANIATMLDIPQKLEGPGYALRNIMVNHVVAATLKNTLQAAALSTILEQTAMFEMGDAVGAFERMHLLGLAYQGMNADNLVFDLVKANGKEGTVGSVIADLVERALEDGVIKVEKELTDYKVYGTDDLAMWNAYAAAGLMAATMVNQGAARAAQGVSSTLLYYNDLIEFETGLPSVDFGKVEGTAVGFSFFSHSIYGGGGPGIFNGNHIVTRHSKGFAIPCVAAAMALDAGTQMFSPEATSGLIKEVFSQVDEFREPLKYVVEAAAEIKNEI
B3: Methyl-Coenzyme M Reductase (MCR) heterotrimer of chains A, B and C, MCRred1-silent Ni(II) form (complex, Methanothermobacter marburgensis)
chain 1: T1 sequence (looked up)
chain 2: B2 chain
chain 3: B1 chain

Test in all cases: crystal structure
Data set [1] deals with T1, Methyl-Coenzyme M Reductase (MCR) chain ….
In data set [2] the target is B2.
The data set “crystal structure” deals with the molecule itself.

These results are taken from article PMC8930625 (Journal of inorganic biochemistry, 2022).

As for B1, the binding result in data set [1] and in data set [2] was “binds” in each case.

Regarding B2, in data set [1], the binding result is given as “binds”.

For the molecule B3, in the data set “crystal structure”, the stoichiometry N (as a rule, a count of units in the complex or per binding partner) was determined as 2.
